Consider four molecules from publication PMC6130075, “Engineering of 3-ketosteroid-∆^1-dehydrogenase based site-directed saturation mutagenesis for efficient biotransformation of steroidal substrates” (Microbial Cell Factories, 2018).

The target in data set [1] is T1, KsdD3 (3-ketosteroid-∆^1-dehydrogenase) (Pimelobacter simplex, UniProt P77815).
T1 construct: gene KR76_27115; full-length, N-terminal His6 tag (pET28a NdeI/EcoRI), E. coli BL21(DE3), Ni-NTA purified
Nature of the data set: PMS/DCPIP reduction at […] nm, Michaelis-Menten fit. As to conditions: 50 mM Tris-HCl pH 7.5, 30 °C, 1.5 mM PMS, 40 µM DCPIP, 2% methanol. The data set is classed as biochemical.

In data set [2] the target is T2, KsdD3 (3-ketosteroid-∆^1-dehydrogenase) (Pimelobacter simplex, UniProt P77815, W299A).
T2 construct: gene KR76_27115; full-length, N-terminal His6 tag (pET28a NdeI/EcoRI), E. coli BL21(DE3), Ni-NTA purified
Kind of data set: PMS/DCPIP reduction at […] nm, Michaelis-Menten fit. The data set is classed as biochemical. As to conditions: 50 mM Tris-HCl pH 7.5, 30 °C, 1.5 mM PMS, 40 µM DCPIP, 2% methanol.

Substrate in data set [3]: C[C@]12CC[C@H]3[C@@H](CCC4=CC(=O)CC[C@@]43C)[C@@H]1CC[C@@H]2O
Nature of the data set: purified protein. As to conditions: pH 7.5; 30.0 °C. The data set is classed as biochemical, Pimelobacter simplex.

Substrate in data set [4]: CC(=O)OCC(=O)[C@@]1(O)CC[C@H]2[C@@H]3CCC4=CC(=O)CC[C@]4(C)[C@H]3C(=O)C[C@@]21C
Kind of data set: purified protein. It is filed as biochemical, Pimelobacter simplex. As to conditions: 50 mM Tris-HCl pH 7.5, 30 °C, 1.5 mM PMS, 40 µM DCPIP, 2% methanol.

Substrate in data set [5]: CC(=O)[C@@]12O[C@@H]1C[C@H]1[C@@H]3CCC4=CC(=O)CC[C@]4(C)[C@H]3[C@H](O)C[C@@]12C
Kind of data set: purified protein. The data set is classed as biochemical, Pimelobacter simplex. As to conditions: 50 mM Tris-HCl pH 7.5, 30 °C, 1.5 mM PMS, 40 µM DCPIP, 2% methanol.

Substrate in data set [6]: CC(=O)[C@@]1(O)CC[C@H]2[C@@H]3CCC4=CC(=O)CC[C@]4(C)[C@H]3C(=O)C[C@@]21C
Nature of the data set: purified protein. It is filed as biochemical, Pimelobacter simplex. Particulars: 50 mM Tris-HCl pH 7.5, 30 °C, 1.5 mM PMS, 40 µM DCPIP, 2% methanol.

Substrate in data set [7]: C[C@]12CCC(=O)C=C1CC[C@@H]1[C@@H]2CC[C@@]2(C)[C@H]1CC[C@]2(C)O
Nature of the data set: purified protein. The data set is classed as biochemical, Pimelobacter simplex. As to conditions: pH 7.5; 30.0 °C.

Substrate in data set [8]: C[C@]12CCC(=O)C=C1CC[C@@H]1[C@@H]2CC[C@]2(C)C(=O)CC[C@@H]12
Kind of data set: purified protein. It is filed as biochemical, Pimelobacter simplex. Particulars: pH 7.5; 30.0 °C.

Substrate in data set [9]: CC(=O)[C@H]1CC[C@H]2[C@@H]3CCC4=CC(=O)CC[C@]4(C)[C@H]3CC[C@]12C
Kind of data set: purified protein. The data set is classed as biochemical, Pimelobacter simplex. Particulars: 50 mM Tris-HCl pH 7.5, 30 °C, 1.5 mM PMS, 40 µM DCPIP, 2% methanol.

Substrate in data set [10]: C[C@]12CCC(=O)C=C1CC[C@@H]1[C@@H]2C(=O)C[C@@]2(C)[C@H]1CC[C@]2(O)C(=O)CO
Nature of the data set: purified protein. Particulars: 50 mM Tris-HCl pH 7.5, 30 °C, 1.5 mM PMS, 40 µM DCPIP, 2% methanol.

Substrate in data set [11]: C[C@]12CCC(=O)C=C1CC[C@@H]1[C@@H]2CC[C@]2(C)C(=O)CC[C@@H]12
Nature of the data set: purified protein. As to conditions: 50 mM Tris-HCl pH 7.5, 30 °C, 1.5 mM PMS, 40 µM DCPIP, 2% methanol.

As to `C[C@]12CCC(=O)C=C1CC[C@H]1[C@@H]3CCC(=O)[C@@]3(C)CC[C@@]12O` [9α-OH-AD, 9α-hydroxy-4-androstene-3,17-dione], the Michaelis constant (Km) in data set [1] came to 145 ± 4.4 µM; in data set [2], 68.5 ± 7 µM.

B1: KsdD3 (3-ketosteroid-∆^1-dehydrogenase) (Pimelobacter simplex; W299A) (protein)
chain: MDWAEEYDVLVAGSGAGGMAGTYTAAREGLSVCLVEAGDKFGGTTAYSGGGGAWFPANPVLLRAGTDDTIEDALEYYRAVVGDRTPADLQETYVRGGAGLVAYLEEDDHFSFESYPWPDYFGDAPKARRDGQRHIIPTPLPVPSAPELREVVRGPLDNDRLGTPQPDDLFIGGRALVARFLTALATYPHATLVRETALAELVVEDGVVVGAIVETDGVRRAIRARRGVLLAAGGFEANDELRQKYGVPGVARDTMGPPTNVGAAHQAAIAVGADTDLMGEAWWSPGLTHPDGRSAFALAFTGGIFVDGAGRRFVNESAPYDRLGRAVIDHLTEGGVTPRYWMVYDHKEGSIPPVRATNVSMVDEEQYVAAGLWHTADTLPELAALIGVPADALVATVARFNELVADGYDADFGRGGEAYDRFFSGGEPPLVSIDEGPFHAAAFGISDLGTKGGLRTDTSARVLTADGTPIGGLYAAGNTMAAPSGTTYPGGGNPIGTSMLFSHLAVRHMGTEDAR
notes: full-length, N-terminal His6 tag (pET28a NdeI/EcoRI), E. coli BL21(DE3), Ni-NTA purified
Take B1: the Km is listed as 33.25 ± 4.2 µM in “purified protein [3]”; 75.93 ± 3.8 µM in “purified protein [4]”; 149.15 ± 4.6 µM in the data set “purified protein [5]”; 46.85 ± 0.9 µM in the data set “purified protein [6]”; 44.63 ± 2.8 µM in the data set “purified protein [7]”; 34.89 ± 2.5 µM in the data set “purified protein [8]”. Also, the results for the Km in “purified protein [9]” and in the data set “purified protein [10]” were 40.37 ± 3.7 µM and 42.85 ± 3.3 µM, respectively. Besides, the specificity constant (kcat/Km) in the data set “purified protein [3]” is 3.7e+06 M⁻¹ s⁻¹; in the data set “purified protein [4]”, 620000 M⁻¹ s⁻¹; in the data set “purified protein [5]” it was 230000 M⁻¹ s⁻¹; in “purified protein [6]” it was 1.32e+06 M⁻¹ s⁻¹; in “purified protein [7]”, 1.66e+06 M⁻¹ s⁻¹; in “purified protein [8]” it was 3.28e+06 M⁻¹ s⁻¹. Besides, the figures for the specificity constant (kcat/Km) in the data set “purified protein [9]” and in the data set “purified protein [10]” were 2.16e+06 M⁻¹ s⁻¹ and 1.82e+06 M⁻¹ s⁻¹, respectively. Also, the kcat amounted to 47.3 ± 1.5 s⁻¹ in “purified protein [4]”; 33.6 ± 2.1 s⁻¹ in “purified protein [5]”; 62.1 ± 6.1 s⁻¹ in the data set “purified protein [6]”; 87.1 ± 4.2 s⁻¹ in the data set “purified protein [9]”; 78 s⁻¹ in “purified protein [10]”.

B2: KsdD3 (3-ketosteroid-∆^1-dehydrogenase) (Pimelobacter simplex; W299G) (protein)
chain: MDWAEEYDVLVAGSGAGGMAGTYTAAREGLSVCLVEAGDKFGGTTAYSGGGGAWFPANPVLLRAGTDDTIEDALEYYRAVVGDRTPADLQETYVRGGAGLVAYLEEDDHFSFESYPWPDYFGDAPKARRDGQRHIIPTPLPVPSAPELREVVRGPLDNDRLGTPQPDDLFIGGRALVARFLTALATYPHATLVRETALAELVVEDGVVVGAIVETDGVRRAIRARRGVLLAAGGFEANDELRQKYGVPGVARDTMGPPTNVGAAHQAAIAVGADTDLMGEAWWSPGLTHPDGRSAFALGFTGGIFVDGAGRRFVNESAPYDRLGRAVIDHLTEGGVTPRYWMVYDHKEGSIPPVRATNVSMVDEEQYVAAGLWHTADTLPELAALIGVPADALVATVARFNELVADGYDADFGRGGEAYDRFFSGGEPPLVSIDEGPFHAAAFGISDLGTKGGLRTDTSARVLTADGTPIGGLYAAGNTMAAPSGTTYPGGGNPIGTSMLFSHLAVRHMGTEDAR
In the case of B2, in the data set “purified protein [11]”, the Km is 37.01 ± 1.8 µM, the catalytic constant (kcat) came to 101.2 ± 0.9 s⁻¹ and the kcat/Km worked out at 2.74e+06 M⁻¹ s⁻¹.

B3: KsdD3 (3-ketosteroid-∆^1-dehydrogenase) (Pimelobacter simplex) (protein)
chain: MDWAEEYDVLVAGSGAGGMAGTYTAAREGLSVCLVEAGDKFGGTTAYSGGGGAWFPANPVLLRAGTDDTIEDALEYYRAVVGDRTPADLQETYVRGGAGLVAYLEEDDHFSFESYPWPDYFGDAPKARRDGQRHIIPTPLPVPSAPELREVVRGPLDNDRLGTPQPDDLFIGGRALVARFLTALATYPHATLVRETALAELVVEDGVVVGAIVETDGVRRAIRARRGVLLAAGGFEANDELRQKYGVPGVARDTMGPPTNVGAAHQAAIAVGADTDLMGEAWWSPGLTHPDGRSAFALWFTGGIFVDGAGRRFVNESAPYDRLGRAVIDHLTEGGVTPRYWMVYDHKEGSIPPVRATNVSMVDEEQYVAAGLWHTADTLPELAALIGVPADALVATVARFNELVADGYDADFGRGGEAYDRFFSGGEPPLVSIDEGPFHAAAFGISDLGTKGGLRTDTSARVLTADGTPIGGLYAAGNTMAAPSGTTYPGGGNPIGTSMLFSHLAVRHMGTEDAR
notes: as for B1
For B3, the Km in the data set “purified protein [3]” is 42.05 ± 4.3 µM; in “purified protein [4]” it was 95.08 ± 4.7 µM; in “purified protein [5]” it was 228.26 ± 7.1 µM; in “purified protein [6]”, 57.12 ± 2.8 µM; in the data set “purified protein [7]”, 55.35 ± 3.1 µM; in the data set “purified protein [8]” it was 47.43 ± 1.9 µM. In addition, the results for the Km in “purified protein [9]” and in the data set “purified protein [10]” were 62.31 ± 4.8 µM and 50.04 ± 2.7 µM, respectively. Also, the specificity constant (kcat/Km) was 1.89e+06 M⁻¹ s⁻¹ in “purified protein [3]”; 480000 M⁻¹ s⁻¹ in the data set “purified protein [4]”; 80000 M⁻¹ s⁻¹ in the data set “purified protein [5]”; 970000 M⁻¹ s⁻¹ in “purified protein [6]”; 1.03e+06 M⁻¹ s⁻¹ in “purified protein [7]”; 1.29e+06 M⁻¹ s⁻¹ in the data set “purified protein [8]”. For the same molecule, the specificity constant (kcat/Km) in “purified protein [9]” was found to be 860000 M⁻¹ s⁻¹; in “purified protein [10]”, 1.19e+06 M⁻¹ s⁻¹. The turnover number (kcat) in the data set “purified protein [4]” came out at 45.3 ± 3.5 s⁻¹; in “purified protein [5]”, 19.2 ± 4.5 s⁻¹; in the data set “purified protein [6]”, 55.2 ± 3.7 s⁻¹; in “purified protein [9]”, 53.5 ± 4.1 s⁻¹; in “purified protein [10]” it was 59.7 s⁻¹.

One may read the Km as the concentration of substrate that gives half-maximal velocity. A word on the kcat/Km: it is the second-order rate constant that governs catalysis at low substrate concentration. As usually defined, the kcat is the number of substrate molecules converted per active site and unit of time at saturation.
